Data as given in the nanobody polyreactivity screen of Harvey et al. (2022).

Test: yeast display, Sf9 membrane polyspecificity reagent, FACS + sequencing; frameworks hold sequencing errors
Method in brief: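 Sorting gates, low and high (top ~1%), were placed on anti-HA fluorescence to track expression and on streptavidin fluorescence to track reagent binding. A clone's polyreactivity label is taken from the gate it came out of. The reagent was 10% biotinylated, detergent-solubilized Sf9 membrane, applied for 1 hour at 4 °C to galactose-induced yeast display cells.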
With “QVQLVESGGGLVQAGGSLRLSCAASGFTFRYYAMGWYRQAPGKEWELVARITWNGGRTYYADSVKGRFTISRDNAKNTLYLQMNSLKPEDTAVYYCAARGFYRSYYWGQGTQVTVSS” the “polyreactivity (PSR sort gate)” value was “high polyreactivity”. For “QVQLVESGGGLVQAGGSLRLSCAASGFTFRYYAMGWYRQAPGTERELVAGITRSGGSTYYADSVKGRFTISRDNAKNTVYLQMNSLKPEDTAVYYCAAYRSIYGTRAPREFESWGQGTQVTVSS”, the “polyreactivity (PSR sort gate)” value was “high polyreactivity”. For “QVQLVESGGGLVQAGGSLRLSCAASGFTFRYYAMVWYRQAPGKERELVAAISYSGGSTYYADSVKGRFTISRDNAKNTVYLQMNCLKPEDTAVYYCAAYYPYSREMGYWGQGTQVTVSS”, the “polyreactivity (PSR sort gate)” value was “high polyreactivity”. With “QVQLVESGGGLVQAGGSLRLSCAASGFTFRYYVMGWYRQAPGKERELVAAITSGGRTHYADSVKGRFTISRDNAKNTDYLQMNSLKPEDTAVYYCAVRTQFAGLHYYYGYWGQGTQVTVSS” the “polyreactivity (PSR sort gate)” value was “high polyreactivity”. With “QVQLVESGGGLVQAGGSLRLSCAASGFTFRYYVMGWYRQAPGKERELVAAITSGGSTNYADSVKGRFTISRDNAKNTVYLQMNSLKPEDTAVYYCYAAYRSYGRFDYWGQGTQVTVSS” the “polyreactivity (PSR sort gate)” value was “low polyreactivity”. For “QVQLVESGGGLVQAGGSLRLSCAASGFTFRYYVMGWYRQSPGKERELVAAISWSGGSTYYADSVKGRFTISRDNAKNTVYLQMNSLKPEDTAVYYCNAASLSKSDYWGQGTQVTVSS”, the “polyreactivity (PSR sort gate)” value was “high polyreactivity”. For “QVQLVESGGGLVQAGGSLRLSCAASGFTFRYYVMGWYRQSPGKERELVASISRAGSTTNYADSVKGRFTISRDNAKNTVYLQMNSLNPEDTAVYYCNVVITPGYSYDISRGEGYWGQGTQVTVSS”, the “polyreactivity (PSR sort gate)” value was “high polyreactivity”. With “QVQLVESGGGLVQAGGSLRLSCAASGFTFSAYTMGWYRQAPGKERELVADISSRGGSTYYADSVKGRFTISRDNAKNTVYLQMNSLKPEDTAVYYCAAVWYWTQDYDYWGQGTQVTVSS” the “polyreactivity (PSR sort gate)” value was “low polyreactivity”. With “QVQLVESGGGLVQAGGSLRLSCAASGFTFSENAMGWYRQAPGRERELVADIPRSGGNTHYADSEKGRFTISRDNAKNTVYLQMNSLKPEDTAVYYCAARVQWLGYGYYYWGQGTQVTVSS” the “polyreactivity (PSR sort gate)” value was “high polyreactivity”. For “QVQLVESGGGLVQAGGSLRLSCAASGFTFSFNAMGWYRQAPGKERELVAAITTADSTYYADSVKGRFTISRDNAKNTVYLQMNSLKPEDTAVYYCAADSYYYGYQGQTQYGWVWYDYWGQGTQVTVSS”, the “polyreactivity (PSR sort gate)” value was “low polyreactivity”. In the case of “QVQLVESGGGLVQAGGSLRLSCAASGFTFSFYAMGWYRQAPGKERELVATISSGGSTTYADSVKGRFTISRDNAKNTVYLQMNSLKPEDTAVYYCAARGKYYRSQDPSGPRRYDYWGQGTQVTVSS”, the “polyreactivity (PSR sort gate)” value is reported as “high polyreactivity”. With “QVQLVESGGGLVQAGGSLRLSCAASGFTFSGYAMGWYRQAPGKERELVAAITRRGGSTYYADSVKGRFTISRDNAKNTVYLQMNSLKPEDTAVYYCAADSGYPWELDYWGQGTQVTVSS” the “polyreactivity (PSR sort gate)” value was “low polyreactivity”. In the case of “QVQLVESGGGLVQAGGSLRLSCAASGFTFSHYAKGWYRQAPGKDRELVAAITASGGNTYYADSVKGRFTISRDNAKNTVYLQMNSLKPEDTAVYYCNAVSLKFTRKYEYWGQGTQVTVSS”, the “polyreactivity (PSR sort gate)” value is reported as “high polyreactivity”. With “QVQLVESGGGLVQAGGSLRLSCAASGFTFSHYAMGWYRQAPGKERELVAAISWGGGSTYYADSVKGRFTISRDNAKNTVYLQMNSLKPEDTAVYYCARDVVYRGYYYGAFVYWGQGTQVTVSS” the “polyreactivity (PSR sort gate)” value was “low polyreactivity”. In the case of “QVQLVESGGGLVQAGGSLRLSCAASGFTFSHYAMGWYRQAPGKERELVAAITASGGNTYYADSVKGRFTISRDNAKNTVYLQMNSLKPEDTAVYYCNAVSLKFTRKFDYWGQGTQVTVSS”, the “polyreactivity (PSR sort gate)” value is reported as “high polyreactivity”. For “QVQLVESGGGLVQAGGSLRLSCAASGFTFSKYAMGWYRPAPGKERELVAAISGSGGSTYYADSVKGRFTISRDNAKITVYLQMNSLKPEDTAVYYCAADGPGKYDYWGQGTQVTVSS”, the “polyreactivity (PSR sort gate)” value was “high polyreactivity”. For “QVQLVESGGGLVQAGGSLRLSCAASGFTFSMYGMGWYRKAPGKERELVAAIRSGGSTNYADSVKGRFTISRDNAKNTVYLQMNSLKPEDTAVYYCAADVIPDGVKKPRMYYWGQGTQVTVSS”, the “polyreactivity (PSR sort gate)” value was “low polyreactivity”. For “QVQLVESGGGLVQAGGSLRLSCAASGFTFSNYAMGWYRQAPGKERELVAAISRSGGSTYYADSVKGRFTISRDNAKNTVYLKMNSLKPEDTAVYYCNAVRYHARSGWSDYWGQGTQVTVSS”, the “polyreactivity (PSR sort gate)” value was “high polyreactivity”. In the case of “QVQLVESGGGLVQAGGSLRLSCAASGFTFSNYDMGWYRQAPGKEREFVADIDWSGGTTYYADSVKGRFTISRDNAKNTVYLQMNSLKPEDTAVYYCATDGYRALSYKYDYWGQGTQVTVSS”, the “polyreactivity (PSR sort gate)” value is reported as “low polyreactivity”. In the case of “QVQLVESGGGLVQAGGSLRLSCAASGFTFSPNAMGWYRQAPGKERELVAAIDWSGDRTYYADSVKGRFTISRDNAKNTVYLQMNSLKPEDTAVEYCNVVRRSPGDYSYYYWGQGTQVTVSS”, the “polyreactivity (PSR sort gate)” value is reported as “low polyreactivity”. In the case of “QVQLVESGGGLVQAGGSLRLSCAASGFTFSPNAMGWYRQAPGKERELVAAITTTGGSTHYADSVKRRFTISRDHAKNTVYLQMHSLKQEDTAVYYCAADWYFEYPTAFHYEYWGQGTQVTVSS”, the “polyreactivity (PSR sort gate)” value is reported as “high polyreactivity”. In the case of “QVQLVESGGGLVQAGGSLRLSCAASGFTFSQYAMGWYRQAPGKERELVAAINSRGGSTYYADSVKGRFTISRDNAKNTVYLQMNSLKPEDTAVYYCNAVISGYPYEYDYWGQGTQVTVSS”, the “polyreactivity (PSR sort gate)” value is reported as “high polyreactivity”. In the case of “QVQLVESGGGLVQAGGSLRLSCAASGFTFSRNAMGWYRQAPGKERELVAAISQSGGSTYYADSVKGRFTISRDNAKNTVYLQMHSLKPEDTAVYYCAAVGRLARRDYWGQGTQVTVSS”, the “polyreactivity (PSR sort gate)” value is reported as “high polyreactivity”. In the case of “QVQLVESGGGLVQAGGSLRLSCAASGFTFSRYAMGWYRQAPGKERELVAAIRLRDGITYYADSVKGRFTISRDNAKNTVYLQMISLKPEDTAVYYCNAVNRTPVSQLDYWGQGTQVTVSS”, the “polyreactivity (PSR sort gate)” value is reported as “high polyreactivity”. For “QVQLVESGGGLVQAGGSLRLSCAASGFTFSRYAMGWYRQAPGKERELVAAISKSTDSTYYADSVKGRFTISRDNAKNTVYLQMNSLKPEDTAVYYCAAVQRYKGLQDDSWGQGTQVTVSS”, the “polyreactivity (PSR sort gate)” value was “high polyreactivity”. For “QVQLVESGGGLVQAGGSLRLSCAASGFTFSRYAMGWYRQAPGKERELVAAISYSGGTTYYADSVKGRFTISRDNAKNTVYLQMNSLKPEDTAVYYCNARARGQLVGHYYYWGQGTQVTVSS”, the “polyreactivity (PSR sort gate)” value was “high polyreactivity”. In the case of “QVQLVESGGGLVQAGGSLRLSCAASGFTFSRYAMGWYRQAPGKERELVAAITLGGGNTYYADSVKGRFTISRDNAKYSVYLQMNSLKREDTSVYYCNAKFGIFGYRSGGYDYWGEGTQVTVSS”, the “polyreactivity (PSR sort gate)” value is reported as “high polyreactivity”. With “QVQLVESGGGLVQAGGSLRLSCAASGFTFSRYTMGWYRQAPGKERELDAAINRRGGSTYYADSVKGRFTISRDNAKNTVYLQMNSLKPEDTAVYYCAATYTVRSGNGIANDYWGQGTQVTVSS” the “polyreactivity (PSR sort gate)” value was “high polyreactivity”. For “QVQLVESGGGLVQAGGSLRLSCAASGFTFSRYTMGWYRQAPGKERELVAAITSVGSTYYADSVKGRFTISRDNAKNTVYLQMNSLKPEDTAVYYCARTYSTWYYYWGQGTQVTVSS”, the “polyreactivity (PSR sort gate)” value was “high polyreactivity”. With “QVQLVESGGGLVQAGGSLRLSCAASGFTFSSNAMGWYRQAPGKERELVAAISFNSTSTYYADSVKGRFTISRDNAKNTVYLQMNSLKPEDTAVYYCAADVPRVQSEPEYDYWGQGTQVTVSS” the “polyreactivity (PSR sort gate)” value was “low polyreactivity”. With “QVQLVESGGGLVQAGGSLRLSCAASGFTFSSNAMGWYRQAPGKERELVAAISSSGARTYYADSVKGRFTISRDNAKNTVYLQMNSLKPEDTAVYYCNARGLAGRKGYDYWGHGTQVTVSS” the “polyreactivity (PSR sort gate)” value was “high polyreactivity”. For “QVQLVESGGGLVQAGGSLRLSCAASGFTFSTNAMGWYRQAPGKETELVAGITSSGGNTYYADSVKGRFTISRDNAKNTVYLQMNSLKPEDTAVYYCAKRRNYVAYDYWGQGTQVTVSS”, the “polyreactivity (PSR sort gate)” value was “high polyreactivity”. In the case of “QVQLVESGGGLVQAGGSLRLSCAASGFTFSTYAMGWYRQAPGKERELVAGITRRGGSTYYADSVKGRFTISRDNAKNTVYLQMNSLKPEDTAVYYCARDLLRVSSSRYNSWGQGTQVTVSS”, the “polyreactivity (PSR sort gate)” value is reported as “high polyreactivity”. With “QVQLVESGGGLVQAGGSLRLSCAASGFTFSYSAMGWYRPAPGKERELVAAISSGGRTYYADSVKGRFTISRDNAKNTVYLQMNSLKPEDTAVYYCNAEPDQYTLRSITNDEDYWGQGTQVTVSS” the “polyreactivity (PSR sort gate)” value was “low polyreactivity”. For “QVQLVESGGGLVQAGGSLRLSCAASGFTFSYYAMGWYRQAPGKERELVAAISRSGGSPYYADSVKGRFTISRDNAKYTVYLQMNSLKPADTAVYYCATDLSYRHGYWGQGTQVTVSS”, the “polyreactivity (PSR sort gate)” value was “high polyreactivity”. In the case of “QVQLVESGGGLVQAGGSLRLSCAASGFTFSYYAMGWYRQAPGKERELVAAITFTGGSTYYADSVKGRFTISRDNAKNTVYLQMNSLKPEDTAVYYCAADWYYGDEYEYWGQGTQVTVSS”, the “polyreactivity (PSR sort gate)” value is reported as “high polyreactivity”. With “QVQLVESGGGLVQAGGSLRLSCAASGFTFSYYAMGWYRQAPGKERELVASISRSGNTYYADSVKGRFTISRDNAKNTFYLQMNSLKPEDTAVYYCAAKRKSYYSYNFDYWGQGTQVTVSS” the “polyreactivity (PSR sort gate)” value was “high polyreactivity”. For “QVQLVESGGGLVQAGGSLRLSCAASGFTFSYYDMGWYRQAPGTERELVAAISWSGGSTYYADSVKGRFTISRDNAKITVYLQMNSLKPEDTAVYYCNTDTDTTSSGYVYWGQGTQVTVSS”, the “polyreactivity (PSR sort gate)” value was “low polyreactivity”. With “QVQLVESGGGLVQAGGSLRLSCAASGFTFTAYAMGWYRQAPGKERELVAAINWSGSRTYYADSVKGRFTISRDNAKNNVYLKMNSLKPEDTAVYYCNTATSKSSYRHYDYWGQGTQVTVSS” the “polyreactivity (PSR sort gate)” value was “high polyreactivity”. In the case of “QVQLVESGGGLVQAGGSLRLSCAASGFTFTFNAMGWYRQAPGKERELVAGITSGTSTNYADSVKGRFTISRDNAKNTVYLQMNSLKPEDTAVYYCAADLYLTSGSQGVYVRYDYWGQGTQVTVSS”, the “polyreactivity (PSR sort gate)” value is reported as “low polyreactivity”. In the case of “QVQLVESGGGLVQAGGSLRLSCAASGFTFTGNAMGWYRQAPGKERELVAAISRSGGSTFYADSVKGRFTISRDNAKNTVYLQMNSLKPEDTAVYYCAARRRTLNYLYDYWGQGTQVTVSS”, the “polyreactivity (PSR sort gate)” value is reported as “high polyreactivity”. For “QVQLVESGGGLVQAGGSLRLSCAASGFTFTGYTMGWYRQAPGKQRELVATISGSGGNTYYADSVKGRFTISRDNAKNTVYLQMNSLKPEDTAVYYCARRRSGPRVLYYYWGQGTQVTVSS”, the “polyreactivity (PSR sort gate)” value was “low polyreactivity”. In the case of “QVQLVESGGGLVQAGGSLRLSCAASGFTFTHYAMGWYRQAPGKERELVAAISTSGGSTYYADSVKGRFTISRDNAKNTVYLQMNSLKPEDTAVYYCAARRDGWVQWGYYYWGQGTQVTVSS”, the “polyreactivity (PSR sort gate)” value is reported as “low polyreactivity”.
